Where a chain is given by its changes, count along the chain named. In names and notes the source's numbering stands.
Key:
Conditions in all cases: both partners purified
[1] = target: T1, CBP80ΔNLS (subunit of the human CBC) (human, UniProt Q09161 20-790); test: cryo-EM structure; snRNA export complex of CBC, CK2-phosphorylated PHAX, CRM1, Ran(Q69L)GTP and 14-nt capped RNA, purified on Superdex 200 Increase; Titan Krios 300 kV
T1 construct: CBP80 (NCBP1), human, lacking the N-terminal 19 residues; Stood in the assay as part of CBC; made a molecule of its own for the contacts seen in the structure; also called NCBP1; source: High Five insect cells; purified together with CBP20 as CBC
T1 sequence (looked up): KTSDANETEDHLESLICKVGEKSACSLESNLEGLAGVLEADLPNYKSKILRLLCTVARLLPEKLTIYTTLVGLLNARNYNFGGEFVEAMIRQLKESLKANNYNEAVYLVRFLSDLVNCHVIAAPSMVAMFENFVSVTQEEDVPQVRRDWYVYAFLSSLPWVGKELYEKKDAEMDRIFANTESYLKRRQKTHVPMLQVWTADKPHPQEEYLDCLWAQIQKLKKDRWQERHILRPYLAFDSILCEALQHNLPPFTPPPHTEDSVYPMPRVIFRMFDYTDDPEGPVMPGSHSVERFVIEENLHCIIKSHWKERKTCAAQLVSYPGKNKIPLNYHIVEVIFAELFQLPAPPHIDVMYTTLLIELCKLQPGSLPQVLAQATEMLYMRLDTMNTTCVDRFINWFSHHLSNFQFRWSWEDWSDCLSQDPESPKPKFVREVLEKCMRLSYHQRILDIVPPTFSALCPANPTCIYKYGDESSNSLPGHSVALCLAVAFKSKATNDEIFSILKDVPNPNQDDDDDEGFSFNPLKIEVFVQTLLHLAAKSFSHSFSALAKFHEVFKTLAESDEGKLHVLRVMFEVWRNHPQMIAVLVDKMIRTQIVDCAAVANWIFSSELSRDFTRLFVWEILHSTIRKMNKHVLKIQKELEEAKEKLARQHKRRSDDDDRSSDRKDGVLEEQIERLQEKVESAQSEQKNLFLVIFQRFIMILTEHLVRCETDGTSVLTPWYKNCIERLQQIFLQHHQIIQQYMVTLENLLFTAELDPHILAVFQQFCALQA

[2] = target: T2, Human full-length PHAX, phosphorylated in vitro by CK2 (human, UniProt Q9H814 1-394, phosphorylated by CK2 in vitro: between 3 and 5 phosphorylated sites, up to four within ST2 (residues 64–76); the positions are not given); test: as above
T2 construct: PHAX (Phosphorylated Adaptor for RNA Export), human, 394 amino acid residues; also called P-PHAX; phosphorylated PHAX; source: E. coli BL21Star (DE3), pETM11, purified (Ni2+-chelating Sepharose, heparin, Superdex 200); then treated with CK2 and ATP

[3] = target: T3, Human nuclear cap-binding complex (CBC): CBP80ΔNLS with CBP20 (human, UniProt Q09161 20-790; P52298 1-156); test: SEC; Superdex 200 Increase 3.2/300; 180 pmol CBC and 360 pmol PHAX construct, CRM1 and RanGTP mixed with 100 μM capped 14-nt RNA (or U1 snRNA), 1 mM Mg2+, 1 mM KCl, 100 μM GTP, 30 min on ice; fractions on SDS-PAGE
T3 construct: CBP80 (NCBP1), human, CBP80ΔNLS lacking the N-terminal 19 residues; CBP20 (NCBP2), human; also called CBP80–CBP20; source: CBP80ΔNLS in High Five insect cells, CBP20 in E. coli BL21Star (DE3); pellets lysed together, purified (Ni2+-chelating Sepharose, TEV, heparin, Superdex 200)
T3 sequence 1: T1 sequence (looked up)
T3 sequence 2: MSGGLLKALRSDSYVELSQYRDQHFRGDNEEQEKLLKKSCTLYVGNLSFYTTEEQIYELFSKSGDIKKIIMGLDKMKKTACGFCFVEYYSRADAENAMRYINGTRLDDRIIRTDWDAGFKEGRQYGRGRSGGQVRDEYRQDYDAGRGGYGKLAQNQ

Human CRM1 = target: T4, Human CRM1 (human, UniProt O14980 1-1071); test: as above
T4 construct: CRM1 (XPO1), human; also called XPO1; exportin CRM1; source: E. coli Tg1, pQE60, purified (Ni2+-chelating Sepharose, heparin, Superdex 200)

[4] = target: Human Ran Q69L bound to GTP (human, UniProt P62826 1-216, Q69L); test: as above
[5] = target: T3, Human nuclear cap-binding complex …; test: ITC; 25 °C, PEAQ-ITC; 0.2–0.25 mM PHAX 103–196 or mutant injected into 20 µM CBC in the presence or absence of 0.1 mM m7GTP or m7GpppG; 20 mM Tris pH 8.0, 100 mM NaCl, 2% glycerol; one-site model

T2 sequence (Q9H814 whole entry, the tested form may be a part): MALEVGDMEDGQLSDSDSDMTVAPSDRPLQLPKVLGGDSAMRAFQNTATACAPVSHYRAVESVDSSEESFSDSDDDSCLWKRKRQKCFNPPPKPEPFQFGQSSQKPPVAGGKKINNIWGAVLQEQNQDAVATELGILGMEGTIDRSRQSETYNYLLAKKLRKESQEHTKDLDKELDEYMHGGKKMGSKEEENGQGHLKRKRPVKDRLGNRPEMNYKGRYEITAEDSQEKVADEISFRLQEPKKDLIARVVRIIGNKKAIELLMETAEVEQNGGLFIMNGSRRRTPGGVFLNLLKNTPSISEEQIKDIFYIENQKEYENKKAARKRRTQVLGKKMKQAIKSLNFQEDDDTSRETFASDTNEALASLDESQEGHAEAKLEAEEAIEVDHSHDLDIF
T4 sequence (O14980 whole entry): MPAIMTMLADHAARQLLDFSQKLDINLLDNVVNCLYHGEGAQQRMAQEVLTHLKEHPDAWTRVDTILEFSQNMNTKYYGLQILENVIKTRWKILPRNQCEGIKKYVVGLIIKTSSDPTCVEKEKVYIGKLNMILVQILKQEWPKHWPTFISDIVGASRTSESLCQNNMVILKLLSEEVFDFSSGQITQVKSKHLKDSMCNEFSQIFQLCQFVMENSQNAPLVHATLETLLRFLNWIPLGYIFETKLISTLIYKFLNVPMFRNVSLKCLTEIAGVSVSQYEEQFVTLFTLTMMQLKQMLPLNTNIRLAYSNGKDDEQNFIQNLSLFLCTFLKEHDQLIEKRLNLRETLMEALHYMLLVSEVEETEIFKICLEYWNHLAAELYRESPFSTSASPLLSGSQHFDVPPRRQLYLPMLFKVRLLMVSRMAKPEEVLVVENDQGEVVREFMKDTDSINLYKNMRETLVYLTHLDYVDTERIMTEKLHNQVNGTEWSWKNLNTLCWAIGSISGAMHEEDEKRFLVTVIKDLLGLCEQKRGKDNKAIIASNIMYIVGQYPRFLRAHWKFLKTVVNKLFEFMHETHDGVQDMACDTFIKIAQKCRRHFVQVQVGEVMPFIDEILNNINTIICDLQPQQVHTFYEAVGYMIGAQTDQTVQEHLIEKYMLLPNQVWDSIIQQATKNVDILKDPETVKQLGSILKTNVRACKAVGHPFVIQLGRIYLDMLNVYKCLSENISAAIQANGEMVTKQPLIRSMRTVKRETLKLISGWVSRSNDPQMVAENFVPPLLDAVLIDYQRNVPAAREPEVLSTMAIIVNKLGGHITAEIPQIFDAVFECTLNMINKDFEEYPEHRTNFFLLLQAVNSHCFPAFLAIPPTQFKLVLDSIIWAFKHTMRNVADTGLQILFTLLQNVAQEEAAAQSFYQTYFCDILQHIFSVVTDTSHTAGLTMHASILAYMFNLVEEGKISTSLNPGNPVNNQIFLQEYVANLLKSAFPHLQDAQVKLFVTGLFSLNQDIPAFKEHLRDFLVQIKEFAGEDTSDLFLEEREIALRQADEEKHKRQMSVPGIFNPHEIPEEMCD

B1: CBP20 (subunit of the human CBC) (natural protein)
chain: T3 sequence 2
notes: CBP20 (NCBP2), human; Stood in the assay as part of CBC; made a molecule of its own for the contacts seen in the structure; also called NCBP2; source: E. coli BL21Star (DE3), pETM30; purified together with CBP80ΔNLS as CBC
binding result [1]: binds
binding result [2]: binds

B2: MBP-PHAX103–196 (wild type) (domain or fragment, human, UniProt Q9H814 103-196, looked up)
chain: SQKPPVAGGKKINNIWGAVLQEQNQDAVATELGILGMEGTIDRSRQSETYNYLLAKKLRKESQEHTKDLDKELDEYMHGGKKMGSKEEENGQGH
notes: source: E. coli BL21Star (DE3), pETM41, purified (Ni2+-chelating Sepharose, Superdex 200); not shown: MBP, N-terminal, kept
binding result [3]: binds
binding result (Human CRM1): binds
binding result [4]: binds

B3: MBP-PHAX103–196 R147E, Y152E, Y154E (domain or fragment, human, UniProt Q9H814 103-196, looked up)
chain: B2 chain with R45E, Y50E, Y52E
notes: as for B2
binding result [5]: binds

B4: MBP-PHAX103–196 Y154A (domain or fragment, human, UniProt Q9H814 103-196, looked up)
chain: B2 chain with Y52A
notes: as for B2
binding result [3]: binds

— PMC12350170, “Structural basis for the synergistic assembly of the snRNA export complex” (Nature Structural & Molecular Biology, 2025)
